The text below walks through data of a protein production outcome set (Wang et al. 2014).

The series in a line: label from the status in PepcDB records.
For “MFIHVGSDKVLVKFIVSKFIKDYSNISNKKVRENYGILSSIMGLIVNLILFVIELSIGIFINSIAVIADAFHNLADVSASVITLIGFKLSNKPADKEHPFGHGRVEYLSALLVSAIILLVGVEFIKTSFLRILSPEPVSFNLISFIIMLIAIPLKLWLSLFNKNIGKKINSSALKASGADALNDVYILSSVILSLLVSAFSTISIDGYVGVLIGALIIWSAVNLMKDTIDPLLGQAPDPNLVKSIKKMALKCDVILGVHDLIIHNYGPGRTMISFHAEVPYNIPIMTLHSKIDETEKRISEELDIFVVIHMDPLLIGSPEVSEAKRYVSKILKDFPSVQSFHDFRIVGDGEDKKLIFDIVVPFDVDISEKKLSKLGDDIKSEIIRRHPHYDCVITVDRDYSGI”, the protein production entry is given as “failed”.

Regarding “MFIKGVILSSYGVNGYARVKSISNNFCDFINLKNNKVLLKKSNSSSVEVKVVDVNIKGNSLFLKFEEIDTPEAVRPLIGFELWVDDSLASSLKEGEYYLGKLIGYAIVNNNKKLGEVVAFFEYLNSVFLEVRVGIKFFFIPFLSIYIGDINTQEKTIELKVLDLLKLEHHHHHH”, the protein production result is listed as “failed”.

Take “MFIKLMRNIFSELTSHIQNMKLYFKRSLLVFSLMSSFCVASERSAWEEVYAKSQHKQTETALKLLQDRYHSLPEGAEKLYLTSKLHGYFVLKGQPYYGELVNSHDTYALTEQRFLDALNHEESLDYHSAEETYLTFYAEMKQKNDQDGMVLFEYHLCRLFQRHGRPYQARFYCSQMDQRLLNAEDPLFPRYRGLHLVANNLEFLGEYEEALQTYDLLLSLLPDYVDPSGIYNDVGLLMGTLGQYESALDYLNKALEYRLEQGNPLLIAQVEHSLGDTYFKQGRYEESILYFEQAKAHLTPANYLFGLAYVHLGLGKAYIELNNFVEGDQHLFQALEYVNQHKDQHLQGLIYLSLAQAHFKEQKYAQAIDYANQAVAISESASLPRIKAQAYLQLAKIAEAEQQYQEALSWYRQYAESELLLRNTEQRKAFEALDLAKAELEQKRGVNFWRENYQALAEKYEMLKWQRVSLSLLVIVFALILPIAHYRRRKECDQNQQDSLHGVLSRTSGLERLTHIEACQQTEHVHLLALLDIDQLRQFNERHGYERGDIALQNTINTLLHQLRAKEFVCRLGDDEFLVVMPNCRRTLSETRLFVLHHALNGKTPTDAKSTVGLSVTLSYLAVESGLASFTHFYPKLDSALSIAKQSGNGGLIDAADPTNALLTACS”: the protein production result was “failed”.

For “MFISVLDLFKIGIGPSSSHTMGPMTAANVFRDHVDQLVSQTPDDLNYRVYCVLKGSLAFTGRGHATDRAVALGLHGHSPVSLAGEDVNALTAKLWATDTLQLTSGREIGFNPEDDIVFDKSDPLPQHPNGMIFYLLDEEGKKILSETFFSIGGGFICTLAEINQ”, the protein production result was “not failed”.

As to “MFIYFPKNYVWSMSTVIAATHGGSIGEIDEFCRPLLDKSSDDADVGTVEFLHAWIGGADKLIKMAEQDLEKNRELSAAKKYYRAALYYLIAERMQEQGHPERLKVYKRYLELAELYRKYKKDDVKRVEIPYQNSHLSAIYAKGKTTDEKQAIVVMMNGLDSTKELMSYCPLADELVERGISVLMVDQPGTGEAIRLQDLRAVYNSEIWASPIVDWLCEQPEIDQHRIAAFGISLGGYYCPRAVAFEPRFCCAAIWGANHDWRAVQHARLKREGENPVPHYWKHVEWVFGAQDQKEFFEIAENMHLNGVLDRIKVPFLVTHGEKDRQIPLKYAYETYDQLINSPDKELLVIDDEMGGVEHSSIDNPLNAGAYIADWLAEHLNGKTSK”, the protein production result is “failed”.

For the sequence “MFKDKKMLKYIVIYSIIAFGILLTFNMVKDEMLYEKVDYSTFMQMLDKKEVKSVNFSGNQIEITPSDSSNLKGKILYTTNPAVAGITQPDLIKDLTAAGVGFNVTKPENYQLLGLLMSWVFPLILIFFVGRMMFSKMNNKMGGGVMSFGKNNAKLYAENETGITFKDVAGQDEAKESLVEIVDFLHDTRKYVEIGAKLPKGALLVGPPGTGKTLLAKAVAGEAKVPFFSMSGSDFVEMFVGMGAARVRDLFKQAEEKAPCIVFIDEIDAIGKSRDGAIQGNDEREQTLNQLLTEMDGFDSSKGVVILAATNRPEVLDKALLRPGRFDRRIIVDRPDLIGREEILKVHSRDVKLSDDVSLEEIAKSTPGAVGADLANIVNEAALRAVKHGRKFVIQEDLDEAVEVIIAGQEKRDRILSPKEKKIVAYHEVGHALVAALLNNTDPVHKITIVPRTMGALGYTMQLPEEEKYLVSKEEMIDQISVMLGGRAAEEVVFNSITTGASNDIERATQSARNMITIYGMSERFDMMALEAMSNRYLDGRPVRNCSETTAAIADEEVLQVIKKAHEKSIKILIENRELLDEITGVLLDKETIMGDEFMEIVYSKYPEKREADEKAKKEIQSLREQALAKRKEKEEAIKKAREEALRLEEEQRKQAELKAMIEAQEEAAKLARANNEANNDDLDSSKENEEVKSNVNDRATEEKKDDSSTNNKVDGE”, the protein production entry is recorded as “failed”.

For the sequence “MFKKKGCFMNQLEQKLEQDFGIVFSQKDLLETAFTHTSYANEHRLLNISHNERLEFLGDAALQLVISVYLYNRYPNKPEGEMSKMRSTIVREESLAGFTKACGFEQYIRLGKGEEKSGGRERATILGDLWEAFLGALYLDQGLPAVEKFLNQVMIPQVEKGNFDRVIDYKTALQERLQVNGKVDITYTVIDESGPAHAKEFTMQVAVDGKELSTGLGKSKKLAEQAAAKSALEQLGN”, the protein production result is given as “failed”.

Consider “MFKKWLTWPVFYELTEIYTAPLNIMWFVLGSAIAQYHLGTVNWLNVTLCLVSVFIFDLAVNVSDNYYDYRHARDREGYAQKTNPIGRLQLPVAGVGRLALGLYLISLIPGIWLVMRTGWLVLVLGLVGYVIGIFYTAGPYPINATPLCETVVALAIAFLIELTCVVVSTYGQHPLTWSIVGTTFLLCLPLTLIFFCLQLANNTADRDEDILNHRYTLAYYLGKPGSVRLIQAFLVIGGIWPLVNVLLGLAPVVTIWVVLLLPIMWQGMRPFFEVQDKKKTFITTVKSASLFFILYPVLFVLGTWL”, for which the protein production result was “failed”.

As to “MFKNNSYKVGVLALALSMALTGCVSDGDDGEQGLKGEQGAPGVVGVDGNDGKSLPRDLNVEVVGRFATGIYGKSAAEIVQFHKSSNAAFAINGASNQIEVISLTNLSTTAVGNPVADESLTSNAFIFPLNVSVTNSAGVEKDMSLGAVNSIAIKKDLLAIAVEGEIKQAHGAILFYSLNELGEGTFIKAVEVGALPDMVTFTPDGSKALVANEGEPNTDYTNDPEGSISVISVVDLMPANVAKTINLSTDIVFSDDNLVPEDFDTDAKRLAILSKAGVKFAGPAGNTVAKDLEPEYITTSSNSKMAYVSLQENNAIGIINLEELTIEVKALGYKDWGKYQLDFSNKDEVPEFKSIQGLYGMYQPDTLASYTWNDTTFIVSANEGDARDYDGFSEEVRVKDIIDTDELNQTLSSELQSQYDVSGGKNYLGRLKVTTALGDEDQNGEFEKLFAYGARSFSIWDKNANLVFDSGDDFGKISAAIMGDNFNAAHTKNKGDNRSDDKGGEPEAIDVGEIAGRTYAFIAQERAGDLFVYDITNPFKTAFVTHYNNRDFTVDYEMDDDLADPCDSSEGMDCTKVNSAGDLGPESIKFVSAIDSPTSKPLLIIGNEVSGTVTVYQITEQ”, the protein production entry is “failed”.

As for “MFKRFVLSLAFLIMAAVVSFQVIFTVPEHPQIITQTGSEITEDIRCIEFSGAKALDDNGELNLLVWNIYKQNRANWQSELELFSADKQLLLLQEASMTDSFKQWLVDGSWVSNQVSAFKALGSGAGVISIAQKQPIKACAYTSKEPWLRLPKSALYSQYRLSNGESLAVINVHAINFTVGTEEYTSQLSALETLLKQHSGPIVFAGDFNSWSEYRITAMKQALREANLREVQFSPDHRTQFITGLPLDHVFYRGLTLKNAKAPQSDASDHNPLLVSFTLND”, the protein production result is “failed”.

As to “MFKSNYKGYGSGIISAMAWGLDTVLVGVILSMAPFINTESAIMLAPFVSTFLHDFFSTLWMFIYMIFTRQVGKLFKSLKTPSTKYVILASIFGGPMGMTGYLLSVNYIGPSYAATISSIYPAVGAVLAAIFLKEKISRKGYIGLTISILGIALLGFGNDGGKASLIGFLFAGLSVLGWGSESVICSYGMKDEDISPKQALQIRQFISALFSGVIILPLLKAYPLVFEVLKGNVTFVIIGTALMGTISYVCYYTAIHKLGPTRAMGLNITYVVWAMIFDKVLLGHNITIKMVICALMVMIGSFVVATQPAHEEELTNVTNTAV”, the protein production result was “failed”.

As to “MFKSPENDSLVSAVFDSSPIGIQIIDLETGMREKINQTACVLLGDTKDNLMAKSVFEDCTWLGKDKFLFVIERLKENKTLKNHIVQFENHQGNELTISYDISEFKYRSKRLVTVSMNDVT”, the protein production result is “failed”.

For “MFKTILLAYDGSEHARRAAEVAKAEAEAHGARLIVVHAYEPVPDYLGEPFFEEALRRRLERAEGVLEEARALTGVPKEDALLLEGVPAEAILQAARAEKADLIVMGTRGLGALGSLFLGSQSQRVVAEAPCPVLLVR”, the protein production result is recorded as “not failed”.

Take “MFKVGPIGSKQYYDKSWEEKGRNMISIFGILVHDGHVKANIQVRLNDDEYVTGLSGIFWERKVTSLTFHTNQGKHGPFCNGTGYSSSYMADYKKEIDVKIRDRREFGGFFGSFDDEFDGLTSIGIYVYPTYDNKPTLNQAWDPLYAFAHNQIPTIADGIPVMHIRYKPKLKDRIFSKLDFKRAMLCLIKVFLD”: the protein production result is given as “failed”.

On to “MFKVPKQSYTAEFKAAAVQRVKDGQGVGAVARELSVSEQTLRNWMKAEQAGKLGGAGAKVVTPEQMELSRLRAENKRLQMELEIAKKAAAYFAKDLL”, for which the protein production result is given as “failed”.

On to “MFLDMLSLIRGQKIKLNDALQGQSSFYIQIHYQAAFDLDIASFGLDSQYRLSDERYMTFYNQPETPCQAVRLIENQNKCSRFLVDLAKLPATIQHLVLTAAIDGQNIMSQLQQVTVQILNLQLQPIAELKLDASIFDQERATMLIEIYRKEGIWRLAAIGQGFNAGLAALIQHFGGEVAEEPTAQQTTPVAPQSNIDLKKKLSLQKAEKTGNASIIDLTKKSLVQLEKKKLLGVTARVALVLDASGSMDGQYRRGDVQKVVNRLMPLAIHFDDDGSFECWAFAAETTQLDDVTLSNVNDFINSTQRGWKNWQVGARYNEEIPAIEAVINYFQKFQDQIPTYVLFISDGGVGSRRQMQKILSQAAKLPIFWQFVGIGGRNYGALEKLDEMSGRIVDNCNFFSLDRIDGVSDERLYELLLQEFPDWLIAARQHQIVRN”, for which the protein production entry was “failed”.

For “MFLDRERELQFLERRYEMGGPEFIVIYGRRRVGKTALLLEFISRHGGIYLLARETSNLENLKRFSDRLSEYFGDDFLKRNPFQNWDAFLEYLNQKATERLVVVIDEFPYLVKGDRSLPSILQEYWDLKLSNGRIFLIICGSSISMMEKLLGYKSPIYGRRTGQINLKPVDFLHAREFLPGYSLEDFIKAYGILGGSPAHLLEFDDSKTIKENLLEYLRSDSLLYQDAFFVLREELEEPRNYFAIMEAVAAGKTSLGEIMNETGLSRATVAKYLSVLIELDFVKREIPITASRKSRRGRYYIKDNYFAFWFRYIHPNIDFIESERRKELLELIIDDLPNYLGGIFENVAIEFLPLISNKLPFKPLKIGRWWHKNEEIDLVAFNEKEEKAILIEVKWKTLNKIEANKILKDLNRKSKILKMKEWEQYHGIIAKRVKDKEKIKGGLIWDLEDIENLKFSPELEHHHHHH”, the protein production entry was “not failed”.

For “MFLEIAKVYLQGLGLASITVILVGIIWVFWRAKKNIDKTARERQSVLYDVLLIALMTAPILAFAFVAIILMIKA”, the protein production result is “failed”.

As to “MFLFMVSRNFSRRDFLKMTAGGVVLASAMPTLSWASLPDEPRVLAMNNLNTGELLETCYFDGNRYVGKELQRLNEFCRDHRRNEVHPMDKRLFDQISQIQKLIGTESEVIVISGYRSPVTNASLRSGSTGVAKKSLHMEGKAIDFRLDGVKLSTVRDAAISLKAGGVGYYPGSNFVHIDTGAVRSW”, the protein production result is recorded as “failed”.
